In patent US20250051474A1, “ANTI-CD97 ANTIBODIES AND ANTIBODY-DRUG CONJUGATES” (New York University, priority 2023, published 2025):

Molecular target: T1, CD97 GAIN mutant T351K expressed on ExpiCHO cells (human, UniProt P48960 21-835)
T1 construct: numbering of isoform 1; whole entry named
T1 sequence: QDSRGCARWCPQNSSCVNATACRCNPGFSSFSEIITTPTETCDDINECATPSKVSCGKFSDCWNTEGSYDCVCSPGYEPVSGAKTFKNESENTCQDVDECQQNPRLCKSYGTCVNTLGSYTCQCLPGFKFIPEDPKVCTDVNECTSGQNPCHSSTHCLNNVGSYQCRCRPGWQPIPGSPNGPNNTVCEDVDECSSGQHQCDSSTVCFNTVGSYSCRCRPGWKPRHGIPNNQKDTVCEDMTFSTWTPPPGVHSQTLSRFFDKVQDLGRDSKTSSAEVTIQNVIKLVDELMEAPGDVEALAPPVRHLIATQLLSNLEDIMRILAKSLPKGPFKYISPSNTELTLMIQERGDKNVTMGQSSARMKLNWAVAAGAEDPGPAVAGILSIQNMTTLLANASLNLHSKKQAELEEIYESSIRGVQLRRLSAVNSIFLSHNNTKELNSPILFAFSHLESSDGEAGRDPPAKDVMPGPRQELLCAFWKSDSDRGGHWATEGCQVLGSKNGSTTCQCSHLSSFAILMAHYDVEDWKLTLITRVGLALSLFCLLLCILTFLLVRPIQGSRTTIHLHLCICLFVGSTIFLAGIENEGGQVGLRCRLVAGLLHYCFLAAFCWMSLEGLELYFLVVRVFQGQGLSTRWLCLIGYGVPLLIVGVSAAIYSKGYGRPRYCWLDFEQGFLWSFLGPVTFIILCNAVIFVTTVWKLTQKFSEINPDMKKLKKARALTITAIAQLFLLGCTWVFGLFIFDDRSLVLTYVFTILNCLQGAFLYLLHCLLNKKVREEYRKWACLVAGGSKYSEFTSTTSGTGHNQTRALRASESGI
Experiment: cell-based binding assay: CD97 GAIN mutant T351K transiently expressed on ExpiCHO cells, A8 Fab titrated, flow cytometry MFI; lower panel
Procedure: KD values were determined from the curve fitting of a 1:1 binding model.

B1: Antibody clone A8, Fab format (Fab, V domains shown)
VH: EVQLVESGGGLVQPGGSLRLSCAASGFTISSYSIHWVRQAPGKGLEWVASISPYYGSTSYADSVKGRFTISADTSKNTAYLQMNSLRAEDTAVYYCARSWYYYEQNPYWYQKEEQALDYWGQGTLVTVSS
VL: DIQMTQSPSSLSASVGDRVTITCRASQSVSSAVAWYQQKPGKAPKLLIYSASSLYSGVPSRFSGSRSGTDFTLTISSLQPEDFATYYCQQSVYSPVTFGQGTKVEIKR
notes: Fab; also called wild type A8
  binding result: no binding (tested: 1000 nM)
